We go through two variants from IntAct's records for PubMed 28642151.

B1: Serine protease HTRA3 (Homo sapiens), P83110-1 (parent)
chain: MQARALLLAALAALALAREPPAAPCPARCDVSRCPSPRCPGGYVPDLCNCCLVCAASEGEPCGGPLDSPCGESLECVRGLCRCRWSHAVCGTDGHTYANVCALQAASRRALQLSGTPVRQLQKGACPLGLHQLSSPRYKFNFIADVVEKIAPAVVHIELFLRHPLFGRNVPLSSGSGFIMSEAGLIITNAHVVSSNSAAPGRQQLKVQLQNGDSYEATIKDIDKKSDIATIKIHPKKKLPVLLLGHSADLRPGEFVVAIGSPFALQNTVTTGIVSTAQREGRELGLRDSDMDYIQTDAIINYGNSGGPLVNLDGEVIGINTLKVTAGISFAIPSDRITRFLTEFQDKQIKDWKKRFIGIRMRTITPSLVDELKASNPDFPEVSSGIYVQEVAPNSPSQRGGIQDGDIIVKVNGRPLVDSSELQEAVLTESPLLLEVRRGNDDLLFSIAPEVVM
partner: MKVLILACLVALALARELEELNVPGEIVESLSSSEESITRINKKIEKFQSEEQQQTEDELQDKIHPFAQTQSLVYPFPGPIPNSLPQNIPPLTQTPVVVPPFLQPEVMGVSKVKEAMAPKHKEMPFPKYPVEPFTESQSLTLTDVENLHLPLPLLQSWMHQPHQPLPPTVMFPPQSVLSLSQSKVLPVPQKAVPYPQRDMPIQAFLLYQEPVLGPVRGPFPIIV
B2: Serine protease HTRA3 (Homo sapiens), P83110-1 (parent)
chain: B1 chain

The first assay covers variants of B1. As to conditions: with casb_bovin CSN2, P02666.
Consider R362A;E371A;Q389A, for which the “effect of a mutation on the interaction” value is reported as “with no effect”.

The variants in a further assay derive from B2. As to conditions: with xiap_human XIAP.
With R362A;E371A;Q389A, the “effect of a mutation on the interaction” value is on record as “with no effect”.
